Laboratory results taken from paper PMC3274541, “The Inherited Blindness Protein AIPL1 Regulates the Ubiquitin-Like FAT10 Pathway” (PLoS ONE, 2012).

T1: Myc-AIPL1 (aryl hydrocarbon receptor interacting protein-like 1), wild type (UniProt Q9NZN9 1-384)
T1 construct: also called pCMV-Tag3C-AIPL1; WT AIPL1; source: SK-N-SH, transfected, in lysate
T1 sequence (looked up): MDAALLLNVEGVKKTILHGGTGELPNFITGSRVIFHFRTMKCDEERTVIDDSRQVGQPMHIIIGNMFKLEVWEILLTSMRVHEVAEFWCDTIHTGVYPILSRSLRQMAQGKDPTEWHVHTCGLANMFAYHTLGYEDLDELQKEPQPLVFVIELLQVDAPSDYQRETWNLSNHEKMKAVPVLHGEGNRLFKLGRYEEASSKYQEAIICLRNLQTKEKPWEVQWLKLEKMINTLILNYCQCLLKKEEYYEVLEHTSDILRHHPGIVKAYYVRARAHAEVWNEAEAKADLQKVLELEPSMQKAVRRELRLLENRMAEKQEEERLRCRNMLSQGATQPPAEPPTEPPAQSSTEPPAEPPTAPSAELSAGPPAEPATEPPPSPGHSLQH

B1: NUB1-FLAG (NEDD8 ultimate buster-1) (natural protein)
chain: not shown
notes: NEDD8 ultimate buster-1 (NUB1), the shorter splice variant that lacks 14 amino acids in the second UBA domain of NUB1L; also called NUB1-p3XFLAG-CMV; source: SK-N-SH, transfected, in lysate
B2: HA-FAT10 (natural protein, UniProt O15205 1-165, looked up)
chain: MAPNASCLCVHVRSEEWDLMTFDANPYDSVKKIKEHVRSKTKVPVQDQVLLLGSKILKPRRSLSSYGIDKEKTIHLTLKVVKPSDEELPLFLVESGDEAKRHLLQVRRSSSVAQVKAMIETKTGIIPETQIVTCNGKRLEDGKMMADYGIRKGNLLFLACYCIGG
notes: ubiquitin-like modifier FAT10; also called free FAT10; monomeric FAT10; source: SK-N-SH, transfected, in lysate

What was measured:
Test in all cases: co-IP; SK-N-SH cells co-transfected; lysed in DM buffer (1% n-dodecyl-β-D-maltoside, 10 mM EDTA, protease inhibitors in PBS); 2 µl antibody 2 h at 4°C, Protein G Sepharose overnight at 4°C, 5 washes; western blot; with or without 50 µM MG132 for 4 h
Conditions in all cases: partners not purified
HA-FAT10 = target: B2
[1] = target: B1
[2] = target: T1, Myc-AIPL1 (aryl hydrocarbon receptor …)

| fold increase of the co-precipitate with MG132 over untreated cells (HA-FAT10) [fold] | fold increase of the co-precipitate with proteasome inhibitor over untreated cells [1] [fold] | fold increase of the co-precipitate with proteasome inhibitor over untreated cells [2] [fold] | Binder |
| --- | --- | --- | --- |
| ~5 | – | – | B1 |
| – | ~2 | ~5 | B2 |
